Experimental data from US20220040297A1 (Chugai, published 2022).
Positions count from the first letter of the chain named.

B1: GLS3000 G91S (antibody, name in Kabat numbering, V domains shown)
VH: QVQLVESGGGVVQPGRSLRLSCAASGFTFSNAWMHWVRQAPGKGLEWVAQIKAKSNNYATYYAESVKGRFTISRDDSKNSLYLQMNSLKTEDTAVYYCRYVHYGAYYGVDAWGQGTTVTVSS
VL: DIVMTQSPLSLPVTPGEPASISCRSSQSLVHSNRNTYLHWYQQKPGQAPRLLIYKVSNRFSGVPDRFSGSGSGTDFTLKISRVEAEDVGVYYCGQSTQVPYTFGQGTKLEIK
notes: one-arm format as m2
B2: GLS3000 H27dY (antibody, name in Kabat numbering, V domains shown)
VH: B1 VH
VL: B1 VL with H31Y, S96G
notes: one-arm format as m2
B3: GLS3000 H27dS (antibody, name in Kabat numbering, V domains shown)
VH: B1 VH
VL: B1 VL with H31S, S96G
notes: one-arm format as m2
B4: GLS3000 H34K (antibody, name in Kabat numbering, V domains shown)
VH: B1 VH
VL: B1 VL with H39K, S96G
notes: one-arm format as m2
B5: GLS3000 H27dD (antibody, name in Kabat numbering, V domains shown)
VH: B1 VH
VL: B1 VL with H31D, S96G
notes: one-arm format as m2
B6: GLS3000 H34I (antibody, name in Kabat numbering, V domains shown)
VH: B1 VH
VL: B1 VL with H39I, S96G
notes: one-arm format as m2
B7: GLS3000 H27dN (antibody, name in Kabat numbering, V domains shown)
VH: B1 VH
VL: B1 VL with H31N, S96G
notes: one-arm format as m2
B8: GLS3000 H27dP (antibody, name in Kabat numbering, V domains shown)
VH: B1 VH
VL: B1 VL with H31P, S96G
notes: one-arm format as m2
B9: GLS3000 H34W (antibody, name in Kabat numbering, V domains shown)
VH: B1 VH
VL: B1 VL with H39W, S96G
notes: one-arm format as m2
B10: GLS3000 H34M (antibody, name in Kabat numbering, V domains shown)
VH: B1 VH
VL: B1 VL with H39M, S96G
notes: one-arm format as m2
B11: GLS3000 H34N (antibody, name in Kabat numbering, V domains shown)
VH: B1 VH
VL: B1 VL with H39N, S96G
notes: one-arm format as m2
B12: GLS3000 H27dI (antibody, name in Kabat numbering, V domains shown)
VH: B1 VH
VL: B1 VL with H31I, S96G
notes: one-arm format as m2
B13: GLS3000 H34D (antibody, name in Kabat numbering, V domains shown)
VH: B1 VH
VL: B1 VL with H39D, S96G
notes: one-arm format as m2
B14: GLS3000 H34A (antibody, name in Kabat numbering, V domains shown)
VH: B1 VH
VL: B1 VL with H39A, S96G
notes: one-arm format as m2
B15: GLS3000 H27dE (antibody, name in Kabat numbering, V domains shown)
VH: B1 VH
VL: B1 VL with H31E, S96G
notes: one-arm format as m2
B16: GLS3000 H34Y (antibody, name in Kabat numbering, V domains shown)
VH: B1 VH
VL: B1 VL with H39Y, S96G
notes: one-arm format as m2
B17: GLS3000 H27dW (antibody, name in Kabat numbering, V domains shown)
VH: B1 VH
VL: B1 VL with H31W, S96G
notes: one-arm format as m2
B18: GLS3000 K50L (antibody, name in Kabat numbering, V domains shown)
VH: B1 VH
VL: B1 VL with K55L, S96G
notes: one-arm format as m2
B19: GLS3000 H27dQ (antibody, name in Kabat numbering, V domains shown)
VH: B1 VH
VL: B1 VL with H31Q, S96G
notes: one-arm format as m2
B20: GLS3000 H27dV (antibody, name in Kabat numbering, V domains shown)
VH: B1 VH
VL: B1 VL with H31V, S96G
notes: one-arm format as m2
B21: GLS3000 G91Y (antibody, name in Kabat numbering, V domains shown)
VH: B1 VH
VL: B1 VL with S96Y
notes: one-arm format as m2
B22: GLS3000 H27dK (antibody, name in Kabat numbering, V domains shown)
VH: B1 VH
VL: B1 VL with H31K, S96G
notes: one-arm format as m2
B23: GLS3000 H27dF (antibody, name in Kabat numbering, V domains shown)
VH: B1 VH
VL: B1 VL with H31F, S96G
notes: one-arm format as m2
B24: GLS3000 H34T (antibody, name in Kabat numbering, V domains shown)
VH: B1 VH
VL: B1 VL with H39T, S96G
notes: one-arm format as m2
B25: GLS3000 H27dT (antibody, name in Kabat numbering, V domains shown)
VH: B1 VH
VL: B1 VL with H31T, S96G
notes: one-arm format as m2
B26: GLS3000 G91T (antibody, name in Kabat numbering, V domains shown)
VH: B1 VH
VL: B1 VL with S96T
notes: one-arm format as m2
B27: GLS3000 K50D (antibody, name in Kabat numbering, V domains shown)
VH: B1 VH
VL: B1 VL with K55D, S96G
notes: one-arm format as m2
B28: GLS3000 H34P (antibody, name in Kabat numbering, V domains shown)
VH: B1 VH
VL: B1 VL with H39P, S96G
notes: one-arm format as m2
B29: GLS3000 H34L (antibody, name in Kabat numbering, V domains shown)
VH: B1 VH
VL: B1 VL with H39L, S96G
notes: one-arm format as m2
B30: GLS3000 H34E (antibody, name in Kabat numbering, V domains shown)
VH: B1 VH
VL: B1 VL with H39E, S96G
notes: one-arm format as m2
B31: GLS3000 K50A (antibody, name in Kabat numbering, V domains shown)
VH: B1 VH
VL: B1 VL with K55A, S96G
notes: one-arm format as m2
B32: GLS3000 H27dA (antibody, name in Kabat numbering, V domains shown)
VH: B1 VH
VL: B1 VL with H31A, S96G
notes: one-arm format as m2
B33: GLS3000 H27dG (antibody, name in Kabat numbering, V domains shown)
VH: B1 VH
VL: B1 VL with H31G, S96G
notes: one-arm format as m2
B34: GLS3000 K50E (antibody, name in Kabat numbering, V domains shown)
VH: B1 VH
VL: B1 VL with K55E, S96G
notes: one-arm format as m2
B35: GLS3000 H27dL (antibody, name in Kabat numbering, V domains shown)
VH: B1 VH
VL: B1 VL with H31L, S96G
notes: one-arm format as m2
B36: GLS3000 H34G (antibody, name in Kabat numbering, V domains shown)
VH: B1 VH
VL: B1 VL with H39G, S96G
notes: one-arm format as m2
B37: GLS3000 H34Q (antibody, name in Kabat numbering, V domains shown)
VH: B1 VH
VL: B1 VL with H39Q, S96G
notes: one-arm format as m2
B38: GLS3000 H34V (antibody, name in Kabat numbering, V domains shown)
VH: B1 VH
VL: B1 VL with H39V, S96G
notes: one-arm format as m2
B39: GLS3000 K50G (antibody, name in Kabat numbering, V domains shown)
VH: B1 VH
VL: B1 VL with K55G, S96G
notes: one-arm format as m2
B40: GLS3000 H34R (antibody, name in Kabat numbering, V domains shown)
VH: B1 VH
VL: B1 VL with H39R, S96G
notes: one-arm format as m2
B41: GLS3000 H34F (antibody, name in Kabat numbering, V domains shown)
VH: B1 VH
VL: B1 VL with H39F, S96G
notes: one-arm format as m2
B42: GLS3000 H27dR (antibody, name in Kabat numbering, V domains shown)
VH: B1 VH
VL: B1 VL with H31R, S96G
notes: one-arm format as m2
B43: GLS3000 H34S (antibody, name in Kabat numbering, V domains shown)
VH: B1 VH
VL: B1 VL with H39S, S96G
notes: one-arm format as m2

Biological target: CD3ε homodimer protein (human, UniProt P07766 23-126, limits assumed)
Sequence (P07766 23-126 limits assumed): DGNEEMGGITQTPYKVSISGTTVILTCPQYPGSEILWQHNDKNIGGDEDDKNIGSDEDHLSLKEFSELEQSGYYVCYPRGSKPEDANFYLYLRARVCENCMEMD
Assay: SPR, immobilized CD3ε homodimer;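 further: biacore T200 surface plasmon resonance at 25 °C, antibody variants flowed as analytes over amine-coupled CD3ε homodimer on a CM4 chip, variant binding amount divided by that of GLS3000 antibody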

Which “ratio of amounts bound (vs GLS3000)” value does the source give for B1 here?
Its value is 0.26.

With B2 as the binder, how does the “ratio of amounts bound (vs GLS3000)” value read?
Its value is 0.64.

Which “ratio of amounts bound (vs GLS3000)” value does the source give for B3 here?
The value was 0.32.

For B4, which “ratio of amounts bound (vs GLS3000)” value is on record?
Its value is 2.17.

For B5, which “ratio of amounts bound (vs GLS3000)” value is on record?
Its value is 0.22.

Which “ratio of amounts bound (vs GLS3000)” value does the source give for B6 here?
The value was 0.65.

B7 was tested. Which “ratio of amounts bound (vs GLS3000)” value did it give?
The value was 0.3.

For B8, which “ratio of amounts bound (vs GLS3000)” value is on record?
Its value is 0.24.

For B9, which “ratio of amounts bound (vs GLS3000)” value is on record?
Its value is 0.21.

Which “ratio of amounts bound (vs GLS3000)” value does the source give for B10 here?
The value was 0.35.

For B11, which “ratio of amounts bound (vs GLS3000)” value is on record?
Its value is 0.65.

With B12 as the binder, how does the “ratio of amounts bound (vs GLS3000)” value read?
The value was 0.26.

How did the “ratio of amounts bound (vs GLS3000)” value turn out when B13 was run?
The value was 0.22.

Which “ratio of amounts bound (vs GLS3000)” value does the source give for B14 here?
Its value is 1.06.

B15 was tested. Which “ratio of amounts bound (vs GLS3000)” value did it give?
Its value is 0.23.

Which “ratio of amounts bound (vs GLS3000)” value does the source give for B16 here?
Its value is 0.59.

B17 was tested. Which “ratio of amounts bound (vs GLS3000)” value did it give?
The value was 0.39.

How did the “ratio of amounts bound (vs GLS3000)” value turn out when B18 was run?
The value was 0.24.

For B19, which “ratio of amounts bound (vs GLS3000)” value is on record?
The value was 0.25.

B20 was tested. Which “ratio of amounts bound (vs GLS3000)” value did it give?
The value was 0.3.

How did the “ratio of amounts bound (vs GLS3000)” value turn out when B21 was run?
Its value is 0.17.

For B22, which “ratio of amounts bound (vs GLS3000)” value is on record?
The value was 0.29.

For B23, which “ratio of amounts bound (vs GLS3000)” value is on record?
The value was 0.63.

With B24 as the binder, how does the “ratio of amounts bound (vs GLS3000)” value read?
The value was 0.89.

How did the “ratio of amounts bound (vs GLS3000)” value turn out when B25 was run?
Its value is 0.29.

With B26 as the binder, how does the “ratio of amounts bound (vs GLS3000)” value read?
The value was 0.26.

With B27 as the binder, how does the “ratio of amounts bound (vs GLS3000)” value read?
The value was 0.22.

With B28 as the binder, how does the “ratio of amounts bound (vs GLS3000)” value read?
The value was 0.34.

With B29 as the binder, how does the “ratio of amounts bound (vs GLS3000)” value read?
The value was 0.59.

How did the “ratio of amounts bound (vs GLS3000)” value turn out when B30 was run?
Its value is 0.23.

With B31 as the binder, how does the “ratio of amounts bound (vs GLS3000)” value read?
Its value is 0.23.

With B32 as the binder, how does the “ratio of amounts bound (vs GLS3000)” value read?
Its value is 0.48.

B33 was tested. Which “ratio of amounts bound (vs GLS3000)” value did it give?
Its value is 0.3.

How did the “ratio of amounts bound (vs GLS3000)” value turn out when B34 was run?
Its value is 0.24.

How did the “ratio of amounts bound (vs GLS3000)” value turn out when B35 was run?
The value was 0.3.

Which “ratio of amounts bound (vs GLS3000)” value does the source give for B36 here?
The value was 1.02.

With B37 as the binder, how does the “ratio of amounts bound (vs GLS3000)” value read?
Its value is 0.25.

Which “ratio of amounts bound (vs GLS3000)” value does the source give for B38 here?
Its value is 0.85.

For B39, which “ratio of amounts bound (vs GLS3000)” value is on record?
The value was 0.16.

With B40 as the binder, how does the “ratio of amounts bound (vs GLS3000)” value read?
Its value is 0.2.

How did the “ratio of amounts bound (vs GLS3000)” value turn out when B41 was run?
Its value is 0.27.

Which “ratio of amounts bound (vs GLS3000)” value does the source give for B42 here?
Its value is 0.31.

How did the “ratio of amounts bound (vs GLS3000)” value turn out when B43 was run?
The value was 0.78.
